The target in assay [1] is Syrian hamster PrP^C (normal SHa brain homogenate) (Syrian hamster). Kind of assay: sandwich ELISA, capture 3F4; normal SHa BH, PK 25 ug/mL, GdnHCl-denatured. A general note: ELISA stands for enzyme-linked immunosorbent assay.
Assay [2] shares this target. Kind of assay: sandwich ELISA, capture 3F4; normal SHa BH, PK 10 ug/mL, NaOH-denatured.
Assay [3] has the same target. The experiment in a line: sandwich ELISA, capture 3F4; normal SHa BH, PK 5 ug/mL, NaOH-denatured.
The target is the same in assay [4]. Kind of assay: sandwich ELISA, capture 3F4; normal SHa BH, trypsin 10 ug/mL, NaOH-denatured.
The target in assay [5] is Syrian hamster PrP^Sc (scrapie-infected SHa brain homogenate) (Syrian hamster).
Assay [6] has as its target Syrian hamster PrP^C (normal SHa brain homogenate) (Syrian hamster). Kind of assay: sandwich ELISA, capture POM17; normal SHa BH, PK 25 ug/mL, GdnHCl-denatured.
The target of assay [7] is Syrian hamster PrP^Sc (scrapie-infected SHa brain homogenate) (Syrian hamster). The experiment in a line: sandwich ELISA, capture 3F4; infectious SHa BH, PK 25 ug/mL, GdnHCl-denatured.
The target in assay [8] is Syrian hamster PrP^C (normal SHa brain homogenate) (Syrian hamster). The experiment in a line: sandwich ELISA, capture POM17; normal SHa BH, trypsin 25 ug/mL, GdnHCl-denatured.
Assay [9] shares this target. Kind of assay: sandwich ELISA, capture 3F4; normal SHa BH, PK 50 ug/mL, NaOH-denatured.
For assay [10], the target named is Syrian hamster PrP^Sc (scrapie-infected SHa brain homogenate) (Syrian hamster). The experiment in a line: sandwich ELISA, capture POM17; infectious SHa BH, PK 25 ug/mL, GdnHCl-denatured.
Assay [11] addresses Syrian hamster PrP^C (normal SHa brain homogenate) (Syrian hamster). The experiment in a line: sandwich ELISA, capture 3F4; normal SHa BH, PK 0 ug/mL, NaOH-denatured.
For assay [12] the target is unchanged. Kind of assay: sandwich ELISA, capture 3F4; normal SHa BH, trypsin 0 ug/mL, not denatured.
For assay [13] the target is unchanged. Kind of assay: sandwich ELISA, capture 3F4; normal SHa BH, PK 100 ug/mL, NaOH-denatured.
In assay [14] the target is Syrian hamster PrP^Sc (scrapie-infected SHa brain homogenate) (Syrian hamster). Kind of assay: sandwich ELISA, capture 3F4; scrapie-infected SHa BH, PK 0 ug/mL, NaOH-denatured.
Assay [15] deals with Syrian hamster PrP^C (normal SHa brain homogenate) (Syrian hamster). Kind of assay: sandwich ELISA, capture 3F4; normal SHa BH, PK 20 ug/mL, NaOH-denatured.
The target is the same in assay [16]. Kind of assay: sandwich ELISA, capture 3F4; normal SHa BH, trypsin 50 ug/mL, not denatured.
Assay [17] concerns the target Human PrP^C (normal human plasma; normal human brain homogenate) (human). Kind of assay: sandwich ELISA, capture 3F4; normal human plasma, trypsin 0 ug/mL, not denatured.
In assay [18] the target is Syrian hamster PrP^Sc (scrapie-infected SHa brain homogenate) (Syrian hamster). Kind of assay: sandwich ELISA, capture 3F4; scrapie-infected SHa BH, PK 5 ug/mL, NaOH-denatured.
The target of assay [19] is Syrian hamster PrP^C (normal SHa brain homogenate) (Syrian hamster). The experiment in a line: sandwich ELISA, capture 3F4; normal SHa BH, trypsin 0 ug/mL, NaOH-denatured.
Assay [20] shares this target. The experiment in a line: sandwich ELISA, capture 3F4; normal SHa BH, trypsin 100 ug/mL, NaOH-denatured.
The target is the same in assay [21]. Kind of assay: sandwich ELISA, capture 3F4; normal SHa BH, trypsin 25 ug/mL, not denatured.
Assay [22] has the same target. The experiment in a line: sandwich ELISA, capture 3F4; normal SHa BH, trypsin 25 ug/mL, GdnHCl-denatured.
Assay [23] has the same target. Kind of assay: sandwich ELISA, capture 3F4; normal SHa BH, trypsin 100 ug/mL, not denatured.
The target is the same in assay [24]. The experiment in a line: sandwich ELISA, capture 3F4; normal SHa BH, trypsin 5 ug/mL, NaOH-denatured.
Assay [25] has the same target. Kind of assay: sandwich ELISA, capture 3F4; normal SHa BH, trypsin 50 ug/mL, NaOH-denatured.
The target is the same in assay [26]. Kind of assay: sandwich ELISA, capture 3F4; normal SHa BH, trypsin 20 ug/mL, NaOH-denatured.
Assay [27] concerns the target Syrian hamster PrP^Sc (scrapie-infected SHa brain homogenate) (Syrian hamster). The experiment in a line: sandwich ELISA, capture POM2; infectious SHa BH, PK 25 ug/mL, GdnHCl-denatured.
The target of assay [28] is Syrian hamster PrP^C (normal SHa brain homogenate) (Syrian hamster). The experiment in a line: sandwich ELISA, capture POM2; normal SHa BH, trypsin 25 ug/mL, GdnHCl-denatured.
The target is the same in assay [29]. The experiment in a line: sandwich ELISA, capture POM2; normal SHa BH, PK 25 ug/mL, GdnHCl-denatured.

Values joined by “and” are separate entries in the source; they are usually repeats but may differ in a detail not shown here. Identical values can stand only once. Like-named read-outs stand apart in the source and are kept apart here.

RLU data for two substances are collected here from patent US20100196934A1.

As for POM2 antibody, the RLU in assay [1] was 10 RLU; in assay [2] it was 50.2 RLU; in assay [3], 84.1 RLU; in assay [4] it was 19.7 RLU; in assay [5] it was 2370 RLU and 2250 RLU; in assay [6], 13.4 RLU. For the same substance, the RLU in assay [7] was found to be 527 RLU; in assay [8], 70.6 RLU; in assay [9] it was 15.8 RLU; in assay [10], 596 RLU; in assay [11] it was 1950 RLU; in [12], 2940 RLU. Further, the RLU in [13] was found to be 4.6 RLU; in assay [14] it was 2290 RLU; in assay [15] it was 37.1 RLU; in assay [16], 14.9 RLU; in assay [17], 195 RLU; in assay [18], 2310 RLU. Further, the RLU in [19] is 2140 RLU; in assay [20] it was 3.4 RLU; in assay [21] it was 20.5 RLU; in assay [22] it was 21.4 RLU; in assay [23] it was 11.7 RLU; in assay [24], 33.2 RLU. Moreover, the RLU was 3.4 RLU in assay [25] and 8.5 RLU in [26].
As for POM17 antibody, the RLU in assay [1] was 1.7 RLU; in assay [27], 68.4 RLU; in assay [2], 7.2 RLU; in assay [28], 14.6 RLU; in [3], 11.4 RLU; in [4] it was 4.5 RLU. In addition, the RLU in assay [5] was 254 RLU and 381 RLU; in assay [7] it was 200 RLU; in [29], 1.8 RLU; in [9] it was 3.3 RLU; in [11], 1680 RLU; in assay [13] it was 2.8 RLU. For the same substance, the RLU in [14] came to 3860 RLU; in [15], 5.5 RLU; in assay [18], 2480 RLU; in assay [19], 1660 RLU; in assay [20], 2.6 RLU; in assay [22] it was 2 RLU. In addition, the figures for the RLU in assay [24], in assay [25] and in assay [26] were 8.5 RLU, 2 RLU and 2.8 RLU, respectively.
